Results taken from publication PMC12363810.

Target: proliferating cell nuclear antigen (PCNA), Saccharomyces cerevisiae (Saccharomyces cerevisiae) (UniProt P15873)
Test: single-molecule correlative force and fluorescence microscopy

UniProt P15873, sequence (P15873 whole entry): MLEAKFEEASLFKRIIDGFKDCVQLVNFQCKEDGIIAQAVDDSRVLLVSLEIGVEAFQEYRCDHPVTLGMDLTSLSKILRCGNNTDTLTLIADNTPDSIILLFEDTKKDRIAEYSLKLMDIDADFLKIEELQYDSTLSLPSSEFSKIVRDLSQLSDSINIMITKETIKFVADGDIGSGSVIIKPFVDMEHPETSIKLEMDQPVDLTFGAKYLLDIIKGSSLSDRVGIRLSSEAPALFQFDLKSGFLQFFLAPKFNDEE

replication factor C (RFC), Saccharomyces cerevisiae, full-length (from UniProt P38630 1-861) (complex)
tethers with RFC along the path of fill-in together with PCNA (of 14 tethers): 9
